Assay [1] deals with human chymotrypsin (Chtr) (human, UniProt P17538 19-263). Put plainly: cell-based or functional assay.
Assay [2] deals with human plasma kallikrein (PK) (human, UniProt P03952 20-638). Kind of assay: cell-based or functional assay.
The target in assay [3] is urokinase plasminogen activator (uPA) (UniProt P00749 21-431, limits assumed). Kind of assay: cell-based or functional assay.
Assay [4] has as its target T1, human neutrophil elastase (HNE) (human, UniProt P08246 30-247, limits assumed).
T1 sequence (looked up): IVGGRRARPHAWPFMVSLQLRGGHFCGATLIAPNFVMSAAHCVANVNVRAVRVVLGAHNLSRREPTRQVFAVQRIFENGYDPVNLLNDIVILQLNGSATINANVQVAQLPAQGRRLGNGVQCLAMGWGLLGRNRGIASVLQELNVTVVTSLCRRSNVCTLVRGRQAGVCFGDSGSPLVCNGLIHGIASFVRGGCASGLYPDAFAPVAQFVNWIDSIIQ
Put plainly: cell-based or functional assay.

In assay [5] the target is thrombin. Kind of assay: cell-based or functional assay.
For assay [6], the target named is T2, human kallikrein 14 (hK14) (human, UniProt Q9P0G3 25-251, limits assumed).
T2 sequence (looked up): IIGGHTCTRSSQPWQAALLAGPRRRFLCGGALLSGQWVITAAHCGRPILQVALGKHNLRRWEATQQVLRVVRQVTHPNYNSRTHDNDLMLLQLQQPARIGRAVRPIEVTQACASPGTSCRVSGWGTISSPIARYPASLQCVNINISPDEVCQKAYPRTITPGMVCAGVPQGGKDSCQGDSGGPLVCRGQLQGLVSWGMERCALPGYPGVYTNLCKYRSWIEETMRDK
Kind of assay: cell-based or functional assay.

The target of assay [7] is T2, human kallikrein 14 (hK14). Put plainly: progress curve; * [I0]/[E0] < 5 * SI. The method, then: The association rate constants for interactions of hK14, with different inhibitors were determined under pseudo-first order conditions using the progress curve method (Morrison and Walsh, 1988). Under these conditions, a fixed amount of enzyme (2 nM) was mixed with different concentrations of inhibitor (0-80 nM) and an excess of substrate (20 μM). Reactions were performed in reaction buffer (50 mM Tris pH 7.5, 150 mM NaCl, 0.05% Triton X-100, 0.01% BSA) at 37° C. for 45 min and the rate of product formation was measured using a FLₓ800 fluorescence 96-well microplate reader (Biotek, USA) Inhibition is considered to be irreversible over the course of reaction and the progression of enzyme activity is expressed as product formation (P), beginning at a rate (vz) and is inhibited over time (t) at a first-order rate (kobs), where the rate constant is only dependent on the inhibitor concentration.

Assay [8] addresses T2, human kallikrein 14 (hK14). Put plainly: residual hK14 activity against [I0]/[E0]. How it is done: SI values of rAAT, rACT, and their variants were determined with hK14 incubating the protease with varying concentrations of inhibitor. After an incubation of 4 hours at 37° C. in reaction buffer (50 mM Tris, pH 7.5, 150 mM NaCl, 0.05% Triton X-100, 0.01% BSA), the residual activity was detected by the addition of fluorescent substrate (Boc-Val-Pro-Arg-AMC). Fluorescence was measured with excitation at 340 nm (±15) and emission at 485 nm (±10) in black 96 well plates using a microplate fluorescence reader FLₓ800 (Bio-Tek Instruments, Inc.). The SI value corresponds to the abscissa intercept of the linear regression analysis of fractional velocity (velocity of inhibited enzyme reaction (vi)/velocity of uninhibited enzyme reaction (v₀)) vs. the molar ratio of the inhibitor to enzyme ([I₀]/[E₀]).

The target in assay [9] is human kallikrein 2 (hK2) (human, UniProt P20151 25-261). Kind of assay: cell-based or functional assay.
For assay [10], the target named is human kallikrein 4 (hK4) (human, UniProt Q9Y5K2 31-254, limits assumed). Put plainly: cell-based or functional assay.
Sequence of human kallikrein 4 (hK4) (Q9Y5K2 31-254 limits assumed): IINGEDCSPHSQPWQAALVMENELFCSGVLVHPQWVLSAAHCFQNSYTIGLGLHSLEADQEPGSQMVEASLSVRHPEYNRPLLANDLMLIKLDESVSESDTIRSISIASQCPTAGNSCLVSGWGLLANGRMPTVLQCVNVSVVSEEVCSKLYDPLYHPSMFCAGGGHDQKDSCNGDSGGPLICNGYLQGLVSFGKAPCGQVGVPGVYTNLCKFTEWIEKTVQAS
Assay [11] concerns the target T3, human kallikrein 5 (hK5) (human, UniProt Q9Y337 67-293, limits assumed).
T3 sequence (looked up): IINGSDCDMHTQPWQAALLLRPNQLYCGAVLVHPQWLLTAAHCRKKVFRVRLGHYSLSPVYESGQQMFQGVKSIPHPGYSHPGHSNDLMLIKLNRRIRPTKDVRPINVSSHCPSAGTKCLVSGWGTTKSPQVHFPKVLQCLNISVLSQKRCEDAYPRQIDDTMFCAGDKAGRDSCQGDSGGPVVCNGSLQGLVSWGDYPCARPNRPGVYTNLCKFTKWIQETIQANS
Put plainly: cell-based or functional assay.

Assay [12] concerns the target human kallikrein 6 (hK6) (human, UniProt Q92876 22-244). Kind of assay: cell-based or functional assay.
Assay [13] has as its target T4, human kallikrein 8 (hK8) (human, UniProt O60259 33-260).
T4 sequence (looked up): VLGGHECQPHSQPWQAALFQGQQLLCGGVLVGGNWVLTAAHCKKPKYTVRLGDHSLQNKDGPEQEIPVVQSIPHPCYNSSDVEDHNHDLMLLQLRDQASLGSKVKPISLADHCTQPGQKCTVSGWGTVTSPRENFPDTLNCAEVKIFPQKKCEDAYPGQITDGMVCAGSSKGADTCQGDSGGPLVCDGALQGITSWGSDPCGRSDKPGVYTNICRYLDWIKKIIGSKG
Put plainly: cell-based or functional assay.

Sequence of human chymotrypsin (Chtr) (P17538 19-263): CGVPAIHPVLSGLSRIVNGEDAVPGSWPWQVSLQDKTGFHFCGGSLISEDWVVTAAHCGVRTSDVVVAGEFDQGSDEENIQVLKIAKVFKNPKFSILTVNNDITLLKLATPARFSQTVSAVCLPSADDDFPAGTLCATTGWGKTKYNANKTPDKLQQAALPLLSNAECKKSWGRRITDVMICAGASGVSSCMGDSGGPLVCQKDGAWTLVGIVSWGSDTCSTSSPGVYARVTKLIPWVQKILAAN
Sequence of human plasma kallikrein (PK) (P03952 20-638 limits assumed): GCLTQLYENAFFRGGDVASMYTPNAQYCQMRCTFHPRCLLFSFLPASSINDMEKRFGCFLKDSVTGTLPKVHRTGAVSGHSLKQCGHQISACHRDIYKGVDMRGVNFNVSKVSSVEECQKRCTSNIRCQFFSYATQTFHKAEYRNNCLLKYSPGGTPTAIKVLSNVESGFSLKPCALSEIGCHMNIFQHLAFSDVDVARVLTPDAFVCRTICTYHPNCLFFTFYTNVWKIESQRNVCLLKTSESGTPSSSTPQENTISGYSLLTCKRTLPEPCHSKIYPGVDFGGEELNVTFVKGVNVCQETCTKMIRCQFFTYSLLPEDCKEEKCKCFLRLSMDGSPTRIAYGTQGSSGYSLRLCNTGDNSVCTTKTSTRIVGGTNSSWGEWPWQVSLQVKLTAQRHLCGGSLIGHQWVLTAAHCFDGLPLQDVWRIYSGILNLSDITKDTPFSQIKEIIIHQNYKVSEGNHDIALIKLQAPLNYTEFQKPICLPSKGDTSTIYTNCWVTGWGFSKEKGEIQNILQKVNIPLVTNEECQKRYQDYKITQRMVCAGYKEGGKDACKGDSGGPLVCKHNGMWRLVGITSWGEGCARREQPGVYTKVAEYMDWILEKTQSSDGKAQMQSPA

B1: ACTC11D (other)
chain: MRGSHHHHHHSRHPNSPLDEENLTQENQDRGTHVDLGLASANVDFAFSLYKQLVLKAPDKNVIFSPLSISTALAFLSLGAHNTTLTEILKGLKFNLTETSEAEIHQSFQHLLRTLNQSSDELQLSMGNAMFVKEQLSLLDRFTEDAKRLYGSEAFATDFQDSAAAKKLINDYVKNGTRGKITDLIKDLDSQTMMVLVNYIFFKAKWEMPFDPQDTHQSRFYLSKKKWVMVPMMSLHHLTIPYFRDEELSCTVVELKYTGNASALFILPDQDKMEEVEAMLLPETLKRWRDSLEFREIGELYLPKFSISRDYNLNDILLQLGIEEAFTSKADLSGITGARNLAVSQVVHKAVLDVFEEGTEASAATAVKITLRQTNDETRTIVRFNRPFLMIIVPTDTQNIFFMSKVTNPKQA
notes: also called rACTC11D
B1: the % Inhibition (as a rule, the percentage by which the read-out fell short of the control) in assay [1] stood at 83%; in assay [2], 0%; in assay [3], 0%; in assay [4], 0%; in assay [5], 0%; in assay [6], 100%. Besides, in assay [7], the kon – broadly, the rate constant with which the complex forms – came to 74000 M⁻¹ s⁻¹. In addition, the “SI (stoichiometry of inhibition)” value in [8] came out at 2.8.

B2: ACTF11 (other)
chain: MRGSHHHHHHSRHPNSPLDEENLTQENQDRGTHVDLGLASANVDFAFSLYKQLVLKAPDKNVIFSPLSISTALAFLSLGAHNTTLTEILKGLKFNLTETSEAEIHQSFQHLLRTLNQSSDELQLSMGNAMFVKEQLSLLDRFTEDAKRLYGSEAFATDFQDSAAAKKLINDYVKNGTRGKITDLIKDLDSQTMMVLVNYIFFKAKWEMPFDPQDTHQSRFYLSKKKWVMVPMMSLHHLTIPYFRDEELSCTVVELKYTGNASALFILPDQDKMEEVEAMLLPETLKRWRDSLEFREIGELYLPKFSISRDYNLNDILLQLGIEEAFTSKADLSGITGARNLAVSQVVHKAVLDVFEEGTEASAATAVKQRLRDALVETRTIVRFNRPFLMIIVPTDTQNIFFMSKVTNPKQA
Regarding B2, the “% Inhibition” value in assay [9] is 25%; in assay [10] it was 45%; in [11], 15%; in assay [12] it was 0%; in [13] it was 0%.

B3: ACTE5 (other)
chain: MRGSHHHHHHSRHPNSPLDEENLTQENQDRGTHVDLGLASANVDFAFSLYKQLVLKAPDKNVIFSPLSISTALAFLSLGAHNTTLTEILKGLKFNLTETSEAEIHQSFQHLLRTLNQSSDELQLSMGNAMFVKEQLSLLDRFTEDAKRLYGSEAFATDFQDSAAAKKLINDYVKNGTRGKITDLIKDLDSQTMMVLVNYIFFKAKWEMPFDPQDTHQSRFYLSKKKWVMVPMMSLHHLTIPYFRDEELSCTVVELKYTGNASALFILPDQDKMEEVEAMLLPETLKRWRDSLEFREIGELYLPKFSISRDYNLNDILLQLGIEEAFTSKADLSGITGARNLAVSQVVHKAVLDVFEEGTEASAATAVKINQRSSLVETRTIVRFNRPFLMIIVPTDTQNIFFMSKVTNPKQA
For the molecule B3, the “% Inhibition” value in assay [9] is 0%; in assay [10], 75%; in assay [11], 10%; in [12] it was 0%; in assay [13], 10%.

B4: ACTG1g (other)
chain: MRGSHHHHHHSRHPNSPLDEENLTQENQDRGTHVDLGLASANVDFAFSLYKQLVLKAPDKNVIFSPLSISTALAFLSLGAHNTTLTEILKGLKFNLTETSEAEIHQSFQHLLRTLNQSSDELQLSMGNAMFVKEQLSLLDRFTEDAKRLYGSEAFATDFQDSAAAKKLINDYVKNGTRGKITDLIKDLDSQTMMVLVNYIFFKAKWEMPFDPQDTHQSRFYLSKKKWVMVPMMSLHHLTIPYFRDEELSCTVVELKYTGNASALFILPDQDKMEEVEAMLLPETLKRWRDSLEFREIGELYLPKFSISRDYNLNDILLQLGIEEAFTSKADLSGITGARNLAVSQVVHKAVLDVFEEGTEASAATAVKGSLRGALVETRTIVRFNRPFLMIIVPTDTQNIFFMSKVTNPKQA
Take B4: the “% Inhibition” value in [9] amounted to 0%; in [10], 0%; in assay [11], 10%; in assay [12], 0%; in assay [13], 0%.

B5: ACTG1 (other)
chain: MRGSHHHHHHSRHPNSPLDEENLTQENQDRGTHVDLGLASANVDFAFSLYKQLVLKAPDKNVIFSPLSISTALAFLSLGAHNTTLTEILKGLKFNLTETSEAEIHQSFQHLLRTLNQSSDELQLSMGNAMFVKEQLSLLDRFTEDAKRLYGSEAFATDFQDSAAAKKLINDYVKNGTRGKITDLIKDLDSQTMMVLVNYIFFKAKWEMPFDPQDTHQSRFYLSKKKWVMVPMMSLHHLTIPYFRDEELSCTVVELKYTGNASALFILPDQDKMEEVEAMLLPETLKRWRDSLEFREIGELYLPKFSISRDYNLNDILLQLGIEEAFTSKADLSGITGARNLAVSQVVHKAVLDVFEEGTEASAATAVKGSLRSALVETRTIVRFNRPFLMIIVPTDTQNIFFMSKVTNPKQA
B5: the “% Inhibition” value turned out to be 15% in assay [9]; 0% in [10]; 50% in assay [11]; 20% in assay [12]; 0% in [13]. In addition, the kon in assay [7] was determined as 3200 M⁻¹ s⁻¹. In addition, in assay [8], the “SI (stoichiometry of inhibition)” value stood at 13.3.

B6: ACTC11g (other)
chain: MRGSHHHHHHSRHPNSPLDEENLTQENQDRGTHVDLGLASANVDFAFSLYKQLVLKAPDKNVIFSPLSISTALAFLSLGAHNTTLTEILKGLKFNLTETSEAEIHQSFQHLLRTLNQSSDELQLSMGNAMFVKEQLSLLDRFTEDAKRLYGSEAFATDFQDSAAAKKLINDYVKNGTRGKITDLIKDLDSQTMMVLVNYIFFKAKWEMPFDPQDTHQSRFYLSKKKWVMVPMMSLHHLTIPYFRDEELSCTVVELKYTGNASALFILPDQDKMEEVEAMLLPETLKRWRDSLEFREIGELYLPKFSISRDYNLNDILLQLGIEEAFTSKADLSGITGARNLAVSQVVHKAVLDVFEEGTEASAATAVKITGRQTNVETRTIVRFNRPFLMIIVPTDTQNIFFMSKVTNPKQA
Turning to B6, the “% Inhibition” value came out at 25% in assay [9]; 0% in assay [10]; 5% in assay [11]; 0% in [12]; 0% in [13]. The molecule also registered an on-rate constant (kon) in assay [7] of 7600 M⁻¹ s⁻¹. Also, in assay [8], the “SI (stoichiometry of inhibition)” value was determined as 13.8.
